Measurements reported in patent US20260250318A1, “COMPOSITIONS AND METHODS FOR CROSSING THE BLOOD BRAIN BARRIER” (VOYAGER THERAPEUTICS, INC., priority 2022, published 2026).
Substitutions are numbered along the chain they refer to. “And” between values parts separate entries of the source, which are not always exact repeats. Identical values can stand only once.

What was measured:
[1] = target: T1, His-tagged ALPL (recombinant, soluble; SPR, BLI and ELISA of Examples 8 and 13) (UniProt P05186 18-502)
T1 sequence: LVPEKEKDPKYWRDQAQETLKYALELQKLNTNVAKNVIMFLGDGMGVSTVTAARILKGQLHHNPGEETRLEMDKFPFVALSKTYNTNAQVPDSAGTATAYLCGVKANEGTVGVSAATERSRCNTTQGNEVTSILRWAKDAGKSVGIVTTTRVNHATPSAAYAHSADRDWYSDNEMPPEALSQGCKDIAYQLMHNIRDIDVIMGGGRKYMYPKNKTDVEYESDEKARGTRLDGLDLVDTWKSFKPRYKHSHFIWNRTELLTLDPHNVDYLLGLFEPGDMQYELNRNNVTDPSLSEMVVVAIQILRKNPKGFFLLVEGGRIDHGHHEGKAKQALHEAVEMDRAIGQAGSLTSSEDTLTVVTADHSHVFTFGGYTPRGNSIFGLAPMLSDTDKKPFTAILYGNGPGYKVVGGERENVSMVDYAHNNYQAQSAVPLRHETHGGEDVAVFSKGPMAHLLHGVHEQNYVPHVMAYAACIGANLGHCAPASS

His-tagged ALPL = target: T2, His-tagged ALPL (Homo sapiens, UniProt P05186); assay: SPR pH dependence of capsid-ALPL interaction; format: binding; details: association at pH 7.4, dissociation at pH 7.4 or 5.5
T2 sequence (P05186 18-501): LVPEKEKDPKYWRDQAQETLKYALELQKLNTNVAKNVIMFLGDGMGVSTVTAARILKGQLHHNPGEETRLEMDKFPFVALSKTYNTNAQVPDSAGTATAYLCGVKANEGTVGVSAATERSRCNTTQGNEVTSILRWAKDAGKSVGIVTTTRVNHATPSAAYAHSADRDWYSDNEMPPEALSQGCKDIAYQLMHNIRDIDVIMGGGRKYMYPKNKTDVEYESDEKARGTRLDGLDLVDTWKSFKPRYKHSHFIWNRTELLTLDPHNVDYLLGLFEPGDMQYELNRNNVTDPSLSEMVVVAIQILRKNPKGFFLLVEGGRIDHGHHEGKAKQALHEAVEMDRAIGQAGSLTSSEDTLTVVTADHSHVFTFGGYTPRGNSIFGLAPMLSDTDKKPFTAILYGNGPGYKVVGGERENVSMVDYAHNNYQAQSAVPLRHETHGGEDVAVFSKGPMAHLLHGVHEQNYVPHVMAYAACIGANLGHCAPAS
Source text: The TTM-002 capsid variant was immobilized on the CM5 sensor chip. His-tagged ALPL and buffer was then passed over the AAV9 control or TTM-002 capsid variant to monitor the rate of association at pH 7.4 and dissociation, respectively, at a pH of 7.4 (FIG. 3A) or a pH of 5.5 (FIG. 3B).

[2] = target: T3, library of over 5,500 cDNAs overexpressed in human cells (ALPL) (Homo sapiens, UniProt P05186); assay: Cell binding array assay for receptor identification; details: detected with anti-AAV9 antibody
T3 construct: expressed in transfected cells
T3 sequence (P05186 18-501): T2 sequence (P05186 18-501)
Source text: A cell binding array assay was then used to identify a receptor for the TTM-001 and TTM-002 capsid variants. Briefly, a library of over 5,500 cDNAs was overexpressed in human cells. Cells were contacted with a test ligand, e.g., AAV viral particles comprising a TTM-001 capsid variant or an AAV9 control capsid, which was applied to the array. Binding of the TTM-001 capsid variant or the AAV9 control capsid to the cells was detected using an anti-AAV9 antibody followed by a labeled anti-IgG detection antibody. […] This interacting protein was identified as the GPI-anchored protein, alkaline phosphatase issue-nonspecific isozyme (NM_000478.4, which is incorporated by reference herein) (ALPL). ALPL is part of a family of membrane-bound glycoproteins that hydrolyze monophosphate esters at a high pH (see, e.g., Weiss et al., Isolation and characterization of a cDNA encoding a human liver/bone/kidney-type alkaline phosphatase. Proc. Natl. Acad. Sci., 83:7182-7186 (1986), the contents of which are hereby incorporated by reference in their entirety).

B1: TTM-002 capsid variant (AAV particle comprising the TTM-002 AAV9 capsid variant) (other)
chain 1: MAADGYLPDWLEDNLSEGIREWWALKPGAPQPKANQQHQDNARGLVLPGYKYLGPGNGLDKGEPVNAADAAALEHDKAYDQQLKAGDNPYLKYNHADAEFQERLKEDTSFGGNLGRAVFQAKKRLLEPLGLVEEAAKTAPGKKRPVEQSPQEPDSSAGIGKSGAQPAKKRLNFGQTGDTESVPDPQPIGEPPAAPSGVGSLTMASGGGAPVADNNEGADGVGSSSGNWHCDSQWLGDRVITTSTRTWALPTYNNHLYKQISNSTSGGSSNDNAYFGYSTPWGYFDFNRFHCHFSPRDWQRLINNNWGFRPKRLNFKLFNIQVKEVTDNNGVKTIANNLTSTVQVFTDSDYQLPYVLGSAHEGCLPPFPADVFMIPQYGYLTLNDGSQAVGRSSFYCLEYFPSQMLRTGNNFQFSYEFENVPFHSSYAHSQSLDRLMNPLIDQYLYYLSKTINGHDSPHKSGQNQQTLKFSVAGPSNMAVQGRNYIPGPSYRQQRVSTTVTQNNNSEFAWPGASSWALNGRNSLMNPGPAMASHKEGEDRFFPLSGSLIFGKQGTGRDNVDADKVMITNEEEIKTTNPVATESYGQVATNHQSAQAQAQTGWVQNQGILPGMVWQDRDVYLQGPIWAKIPHTDGNFHPSPLMGGFGMKHPPPQILIKNTPVPADPPTAFNKDKLNSFITQYSTGQVSVEIEWELQKENSKRWNPEIQYTSNYYKSNNVEFAVNTEGVYSEPRPIGTRYLTRNL
chain 2: TAPGKKRPVEQSPQEPDSSAGIGKSGAQPAKKRLNFGQTGDTESVPDPQPIGEPPAAPSGVGSLTMASGGGAPVADNNEGADGVGSSSGNWHCDSQWLGDRVITTSTRTWALPTYNNHLYKQISNSTSGGSSNDNAYFGYSTPWGYFDFNRFHCHFSPRDWQRLINNNWGFRPKRLNFKLFNIQVKEVTDNNGVKTIANNLTSTVQVFTDSDYQLPYVLGSAHEGCLPPFPADVFMIPQYGYLTLNDGSQAVGRSSFYCLEYFPSQMLRTGNNFQFSYEFENVPFHSSYAHSQSLDRLMNPLIDQYLYYLSKTINGHDSPHKSGQNQQTLKFSVAGPSNMAVQGRNYIPGPSYRQQRVSTTVTQNNNSEFAWPGASSWALNGRNSLMNPGPAMASHKEGEDRFFPLSGSLIFGKQGTGRDNVDADKVMITNEEEIKTTNPVATESYGQVATNHQSAQAQAQTGWVQNQGILPGMVWQDRDVYLQGPIWAKIPHTDGNFHPSPLMGGFGMKHPPPQILIKNTPVPADPPTAFNKDKLNSFITQYSTGQVSVEIEWELQKENSKRWNPEIQYTSNYYKSNNVEFAVNTEGVYSEPRPIGTRYLTRNL
chain 3: MASGGGAPVADNNEGADGVGSSSGNWHCDSQWLGDRVITTSTRTWALPTYNNHLYKQISNSTSGGSSNDNAYFGYSTPWGYFDFNRFHCHFSPRDWQRLINNNWGFRPKRLNFKLFNIQVKEVTDNNGVKTIANNLTSTVQVFTDSDYQLPYVLGSAHEGCLPPFPADVFMIPQYGYLTLNDGSQAVGRSSFYCLEYFPSQMLRTGNNFQFSYEFENVPFHSSYAHSQSLDRLMNPLIDQYLYYLSKTINGHDSPHKSGQNQQTLKFSVAGPSNMAVQGRNYIPGPSYRQQRVSTTVTQNNNSEFAWPGASSWALNGRNSLMNPGPAMASHKEGEDRFFPLSGSLIFGKQGTGRDNVDADKVMITNEEEIKTTNPVATESYGQVATNHQSAQAQAQTGWVQNQGILPGMVWQDRDVYLQGPIWAKIPHTDGNFHPSPLMGGFGMKHPPPQILIKNTPVPADPPTAFNKDKLNSFITQYSTGQVSVEIEWELQKENSKRWNPEIQYTSNYYKSNNVEFAVNTEGVYSEPRPIGTRYLTRNL
Kd [1]: 32 nM and 26.8 nM and 47 nM and 52.3 nM
kon [1]: 39800 M⁻¹ s⁻¹ and 43600 M⁻¹ s⁻¹ and 39400 M⁻¹ s⁻¹ and 98000 M⁻¹ s⁻¹

B2: TTM-002: AAV9 capsid variant comprising HDSPHK (SEQ ID NO: 2) in loop IV (protein)
chain 1: B1 chain 1
chain 2: GHDSPHKSGQNQQT
rate of dissociation from ALPL, pH 7.4 vs 5.5 (His-tagged ALPL): increased when the pH was decreased from 7.4 to 5.5

B3: TTM-001: AAV9 capsid variant comprising SPHSKA (SEQ ID NO: 941) in loop IV (protein)
chain 1: B1 chain 1 with H454S, D455G, K459S, S460K, G461A
chain 2: GSGSPHSKAQNQQT
interaction with ALPL in cell binding array [2]: a unique interaction with the TTM-001 capsid variant
